The results in this text go back to patent publication EP4772538A1.

The target of the assay is CD3D-CD3E-mFc (human; mouse). Briefly: SPR, Biacore T200, method of Section 3.1; affinity for CD3D-CD3E-mFc.

A word on the Kd: it is the concentration at which binding is half-saturated. Low values mean higher affinity, high ones lower affinity. One may read the koff as the rate constant with which the complex falls apart. A high value points to fast dissociation. What is called kon is the second-order rate constant of association. A low value points to slower complex formation. “TCR/CD3 bispecific molecule IMC-C103C (control bifunctional molecule)”: the Kd amounted to 1.08 nM, the koff came out at 0.00028 s⁻¹ and the kon stood at 258000 M⁻¹ s⁻¹.
